Source: paper PMC8178886, “Recombinant laccase rPOXA 1B real-time, accelerated and molecular dynamics stability study” (BMC Biotechnology, 2021)

Substrate: CCn1c(=NN=c2sc3cc(S(=O)(=O)O)ccc3n2CC)sc2cc(S(=O)(=O)O)ccc21
Experiment: cells, lysate or membranes
Assay type: biochemical, Pleurotus ostreatus
Conditions: unpurified concentrate stored 12 months at 240.98 K (-32.55 °C), activity unchanged, 0.1 M citrate pH 3.0, 25 °C, ABTS 0.1-3 mM (all above the KM), air O2

B1: rPOXA 1B (Pleurotus ostreatus) (protein)
chain: SIGPRGTLNIANKVIQPDGFYRSTVLAGGSYPGPLIKGKTGDRFQINVVNKLADTSMPVDTSIHWHGLFVKGHNWADGPAMVTQCPIVPGHSFLYDFEVPDQAGTFWYHSHLGTQYCDGLRGPLVVYSKNDPHKRLYDVDDESTVLTVGDWYHAPSLSLTGVPHPDSTLFNGLGRSLNGPASPLYVMNVVKGKRYRIRLINTSCDSNYQFSIDGHTFTVIEADGENTQPLQVDQVQIFAGQRYSLVLNANQAVGNYWIRANPNSGDPGFENQMNSAILRYKGARSIDPTTPEQNATNPLHEYNLRPLIKKPAPGKPFPGGADHNINLNFAFDPATALFTANNHTFVPPTVPVLLQILSGTRDAHDLAPAGSIYDIKLGDVVEITMPALVFAGPHPIHLHGHTFAVVRSAGSSTYNYENPVRRDVVSIGDDPTDNVTIRFVADNAGPWFLHCHIDWHLDLGFAVVFAEGVNQTAAANPVPEAWNNLCPIYNSSNPSKLLMGTNAIGRLPAPLKA
notes: recombinant, made in Pichia pastoris X33/pGAPZalphaA-LaccPost-Stop clone 1 (10 L bioreactor); unpurified enzyme concentrate without preservatives
B1 was tested, and the Km was 0.0414 ± 0.0046 mM and the Vmax was 10.2 µM/min.
